The numbers were not newly measured in patent US20090317412A1, “Induction of an immune response against streptococcus pneumoniae polyaccharides” (priority 2004, published 2009), which cites them from elsewhere.

The target of this data set is T1, murine I-A^b molecules (Mus musculus, UniProt P14434+P14483).
T1 sequence (P14434 24-256): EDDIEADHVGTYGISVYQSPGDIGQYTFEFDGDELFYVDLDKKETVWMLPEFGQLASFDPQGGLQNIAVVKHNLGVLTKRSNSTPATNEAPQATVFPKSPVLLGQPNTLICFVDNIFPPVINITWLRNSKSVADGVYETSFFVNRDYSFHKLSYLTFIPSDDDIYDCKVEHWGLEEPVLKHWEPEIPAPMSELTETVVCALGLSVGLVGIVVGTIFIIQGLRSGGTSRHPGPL
T1 sequence (P14483 28-265): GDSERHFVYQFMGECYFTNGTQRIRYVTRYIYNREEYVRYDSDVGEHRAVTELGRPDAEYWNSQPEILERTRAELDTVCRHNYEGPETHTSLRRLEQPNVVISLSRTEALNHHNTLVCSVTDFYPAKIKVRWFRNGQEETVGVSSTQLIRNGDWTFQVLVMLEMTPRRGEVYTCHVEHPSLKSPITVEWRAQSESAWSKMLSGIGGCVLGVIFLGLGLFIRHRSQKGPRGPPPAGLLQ

Turning to AKXVAAWTLKAAA [pan DR binding peptide], the “binding to murine I-A^b molecules” value was “binds”.
